# PMC7604772 (The Journal of Cell Biology, 2020)
# Square brackets hold non-standard residues; d marks the D form. * marks the point of attachment. Biotin = O=C1N[C@H]2[C@H](CS[C@H]2CCCCC(=O)*)N1; pT = C[C@@H](OP(=O)(O)O)[C@H](N)C(=O)O
# B1: biotin-integrin peptide β1-762-798 (peptide)
# peptide: Biotin-EFAKFEKEKMNAKWDTGENPIYKSAVTTVVNPKYEGK-OH
# SMILES: CC[C@H](C)[C@H](NC(=O)[C@@H]1CCCN1C(=O)[C@H](CC(N)=O)NC(=O)[C@H](CCC(=O)O)NC(=O)CNC(=O)[C@@H](NC(=O)[C@H](CC(=O)O)NC(=O)[C@H](Cc1c[nH]c2ccccc12)NC(=O)[C@H](CCCCN)NC(=O)[C@H](C)NC(=O)[C@H](CC(N)=O)NC(=O)[C@H](CCSC)NC(=O)[C@H](CCCCN)NC(=O)[C@H](CCC(=O)O)NC(=O)[C@H](CCCCN)NC(=O)[C@H](CCC(=O)O)NC(=O)[C@H](Cc1ccccc1)NC(=O)[C@H](CCCCN)NC(=O)[C@H](C)NC(=O)[C@H](Cc1ccccc1)NC(=O)[C@H](CCC(=O)O)NC(=O)CCCC[C@@H]1SC[C@@H]2NC(=O)N[C@@H]21)[C@@H](C)O)C(=O)N[C@@H](Cc1ccc(O)cc1)C(=O)N[C@@H](CCCCN)C(=O)N[C@@H](CO)C(=O)N[C@@H](C)C(=O)N[C@H](C(=O)N[C@H](C(=O)N[C@H](C(=O)N[C@H](C(=O)N[C@H](C(=O)N[C@@H](CC(N)=O)C(=O)N1CCC[C@H]1C(=O)N[C@@H](CCCCN)C(=O)N[C@@H](Cc1ccc(O)cc1)C(=O)N[C@@H](CCC(=O)O)C(=O)NCC(=O)N[C@@H](CCCCN)C(=O)O)C(C)C)C(C)C)[C@@H](C)O)[C@@H](C)O)C(C)C
# B2: biotin-integrin phospho-peptide β1-762-798 pTpT (peptide)
# peptide: Biotin-EFAKFEKEKMNAKWDTGENPIYKSAV[pT][pT]VVNPKYEGK-OH
# SMILES: CC[C@H](C)[C@H](NC(=O)[C@@H]1CCCN1C(=O)[C@H](CC(N)=O)NC(=O)[C@H](CCC(=O)O)NC(=O)CNC(=O)[C@@H](NC(=O)[C@H](CC(=O)O)NC(=O)[C@H](Cc1c[nH]c2ccccc12)NC(=O)[C@H](CCCCN)NC(=O)[C@H](C)NC(=O)[C@H](CC(N)=O)NC(=O)[C@H](CCSC)NC(=O)[C@H](CCCCN)NC(=O)[C@H](CCC(=O)O)NC(=O)[C@H](CCCCN)NC(=O)[C@H](CCC(=O)O)NC(=O)[C@H](Cc1ccccc1)NC(=O)[C@H](CCCCN)NC(=O)[C@H](C)NC(=O)[C@H](Cc1ccccc1)NC(=O)[C@H](CCC(=O)O)NC(=O)CCCC[C@@H]1SC[C@@H]2NC(=O)N[C@@H]21)[C@@H](C)O)C(=O)N[C@@H](Cc1ccc(O)cc1)C(=O)N[C@@H](CCCCN)C(=O)N[C@@H](CO)C(=O)N[C@@H](C)C(=O)N[C@H](C(=O)N[C@H](C(=O)N[C@H](C(=O)N[C@H](C(=O)N[C@H](C(=O)N[C@@H](CC(N)=O)C(=O)N1CCC[C@H]1C(=O)N[C@@H](CCCCN)C(=O)N[C@@H](Cc1ccc(O)cc1)C(=O)N[C@@H](CCC(=O)O)C(=O)NCC(=O)N[C@@H](CCCCN)C(=O)O)C(C)C)C(C)C)[C@@H](C)OP(=O)(O)O)[C@@H](C)OP(=O)(O)O)C(C)C
# Biological target: His-Sumo–tagged talin F3 subdomain of the FERM domain (mouse, UniProt P26039 309-411)
# Sequence (P26039 309-411): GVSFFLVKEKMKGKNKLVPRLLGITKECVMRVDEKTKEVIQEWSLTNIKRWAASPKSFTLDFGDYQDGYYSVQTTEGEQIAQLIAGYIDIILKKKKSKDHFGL
# Assay: pull-down
row,Binder,binding result
1,B1,binds
2,B2,binds
